# Measurements taken from publication PMC5858146.
# Legend:
# [1] = target: Porcine gastric mucin (PGM) (porcine); assay: ITC; ITC-200 at 37 °C, pH 7.4; PGM solution (40 μM) in the 200 μL cell, KTN or KOS solution (1% w/v) in the syringe
# [2] = target: Porcine gastric mucin (PGM) (porcine); assay: ITC; ITC-200 at 37 °C, pH 4.5; PGM solution (40 μM) in the 200 μL cell, KTN or KOS solution (1% w/v) in the syringe
# [3] = target: Porcine gastric mucin (PGM) (porcine); assay: ITC; ITC-200 at 37 °C, pH 7.4; PGM solution (40 μM) in the 200 μL cell, KTN or KOS solution (1% w/v) in the syringe; remark: listed apart in the source
# [4] = target: Porcine gastric mucin (PGM) (porcine); assay: as above; remark: listed apart in the source
Ka [1],dH [1],stoichiometry N [1],Ka [2],dH [2],stoichiometry N [2],Ka [3],dH [4],Substance
10700 M⁻¹,-3.47 kcal/mol,1.5,398000 M⁻¹,-2.41 kcal/mol,1.23,–,–,"kerateine (reduced keratin, KTN)"
4140 M⁻¹,-61.1 kcal/mol,1.27,15500 M⁻¹,-4.25 kcal/mol,1.15,41400 M⁻¹,61.1 kcal/mol,"keratose (oxidized keratin, KOS)"
